These results are taken from patent US9962447B2, “Supramolecular aggregates comprising maleimido cores” (UFPEPTIDES S.R.L., priority 2013, dated 2018).

One may read the pEC50 as the EC50 on a negative log10 scale, so that one unit is a factor of ten. A word on the Emax: it is the maximal effect, on the per cent scale that the assay sets.

The subject of assay [1] is locomotor activity of NOP(−/−) mice. Description: Locomotor activity of NOP(−/−) mice. To be noted: 0.25 nmole, 120 min post injection.
Method: (§2) Mice were positioned in a square plastic cage (40×40 cm), one mouse per cage. Four mice were monitored in parallel. Mouse horizontal activity was monitored by a camera while vertical activity was measured by an infrared beam array. Animals locomotion was recorded for 60 min.
(§3) In vivo data are expressed as mean±sem of n animals. Data were analysed using one-way analysis of variance (ANOVA) followed by Dunnett post hoc test. Differences were considered statistically significant when p<0.05.
For assay [2], the system named is locomotor activity of NOP(+/+) mice. The experiment in a line: Locomotor activity of NOP(+/+) mice. To be noted: 0.25 nmole, 120 min post injection.
Method: as §2, §3
Assay [3] relates to spontaneous locomotor activity. Description: Mouse locomotor activity, CD-1 mice, i.c.v. The class given is in vivo.
The next assay deals with human NOP receptor (Homo sapiens, UniProt P41146). The experiment in a line: Calcium mobilization in CHO cells expressing human NOP receptor and Gαqi5. The class given is cell-based. As to conditions: inactive = inactive up to 1 μM. As to the method: Cells were maintained in culture medium consisting of Dulbecco's MEM/HAM'S F-12 (50/50) supplemented with 10% foetal calf serum, penicillin (100 IU/ml), streptomycin (100 μg/ml), fungizone (2.5 μg/ml), geneticin (G418; 200 μg/ml) and hygromycin B ([…]). Cell cultures were kept at 37° C. in 5% CO2 humidified air. In all cases experimental cultures were free from selection agents (hygromycin B, G418). When confluence was reached (3-4 days), cells were sub-cultured as required using trypsin EDTA and used for experimentation. Cells were seeded at a density of 50,000 cells/well into 96-well black, clear-bottom plates. After 24 hours incubation the cells were loaded with medium supplemented with 2.5 mM probenecid, 3 μM of the calcium sensitive fluorescent dye Fluo-4 AM and 0.01% pluronic acid, for 30 min at 37° C. Afterwards the loading solution was aspirated and 100 μl/well of assay buffer: Hank's Balanced Salt Solution (HBSS) supplemented with 20 mM HEPES, 2.5 mM probenecid and 500 μM Brilliant Black (Aldrich) was added. […] On-line additions were carried out in a volume of 50 μl/well. […]
human NOP receptor, sequence (P41146 whole entry): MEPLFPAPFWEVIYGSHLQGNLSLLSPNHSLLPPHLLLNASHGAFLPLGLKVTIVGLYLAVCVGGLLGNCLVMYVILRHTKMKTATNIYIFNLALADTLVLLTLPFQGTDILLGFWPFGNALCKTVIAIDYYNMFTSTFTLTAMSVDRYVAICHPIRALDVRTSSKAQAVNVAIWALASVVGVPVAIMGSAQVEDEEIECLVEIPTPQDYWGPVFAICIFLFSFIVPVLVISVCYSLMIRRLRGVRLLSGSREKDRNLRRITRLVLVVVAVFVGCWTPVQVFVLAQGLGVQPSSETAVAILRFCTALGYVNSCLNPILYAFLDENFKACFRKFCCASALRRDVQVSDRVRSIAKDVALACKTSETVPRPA
(§1) Four mice were monitored in parallel. […] Animals locomotion was recorded for 60 min.
For orientation: A change in cytosolic calcium serves as a functional read-out for many receptors and channels.

The subject of assay [4] is vas deferens tissues taken from NOP(+/+) mice. Description: Electrically stimulated vas deferens from NOP(+/+) mice. Also on record: species or system mouse.
Method: The bath temperature was set at 33° C. Tissues were continuously stimulated through two platinum ring electrodes with supramaximal rectangular pulses of 1 ms duration and 0.05 Hz frequency. A resting tension of 0.3 g was applied to the vas deferens. […] Following an equilibration period of 60 min, the contractions induced by electrical field stimulation were stable.
A further assay deals with MOP receptor (Homo sapiens, UniProt P35372). The experiment in a line: Calcium mobilization in CHO cells expressing MOP receptor and Gαqi5. Format: cell-based. To be noted: inactive = inactive up to 1 μM. As to the method: Cell cultures were kept at 37° C. in 5% CO2 humidified air. In all cases experimental cultures were free from selection agents (hygromycin B, G418). When confluence was reached (3-4 days), cells were sub-cultured as required using trypsin EDTA and used for experimentation. Cells were seeded at a density of 50,000 cells/well into 96-well black, clear-bottom plates. After 24 hours incubation the cells were loaded with medium supplemented with 2.5 mM probenecid, 3 μM of the calcium sensitive fluorescent dye Fluo-4 AM and 0.01% pluronic acid, for 30 min at 37° C. Afterwards the loading solution was aspirated and 100 μl/well of assay buffer: Hank's Balanced Salt Solution (HBSS) supplemented with 20 mM HEPES, 2.5 mM probenecid and 500 μM Brilliant Black (Aldrich) was added. […] On-line additions were carried out in a volume of 50 μl/well. To facilitate drug diffusion into the wells in antagonist type experiments, the present studies were performed at 37° C. and three cycles of mixing (25 μl from each well moved up and down 3 times) were performed immediately after antagonist injection to the wells.
MOP receptor, sequence (P35372 whole entry): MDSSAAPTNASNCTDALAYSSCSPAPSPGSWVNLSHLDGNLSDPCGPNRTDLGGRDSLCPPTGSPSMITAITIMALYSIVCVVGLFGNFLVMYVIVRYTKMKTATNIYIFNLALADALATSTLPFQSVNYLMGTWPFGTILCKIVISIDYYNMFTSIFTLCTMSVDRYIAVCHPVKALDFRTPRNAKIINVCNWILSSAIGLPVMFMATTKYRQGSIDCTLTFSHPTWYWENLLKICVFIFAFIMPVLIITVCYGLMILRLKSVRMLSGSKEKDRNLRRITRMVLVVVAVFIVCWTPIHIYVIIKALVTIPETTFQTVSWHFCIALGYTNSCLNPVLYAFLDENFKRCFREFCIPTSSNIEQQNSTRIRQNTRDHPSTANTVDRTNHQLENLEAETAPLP
as §1

Assay [5] concerns electrically stimulated mouse vas deferens. Description: Electrically stimulated mouse vas deferens. As to the method:
The bath temperature was set at 33° C. Tissues were continuously stimulated through two platinum ring electrodes with supramaximal rectangular pulses of 1 ms duration and 0.05 Hz frequency. A resting tension of 0.3 g was applied to the vas deferens.
assuming a slope value equal to unity, where CR indicate the ratio between agonist potency in the presence and absence of antagonist.

Assay [6] deals with vas deferens tissues taken from NOP(−/−) mice. The experiment in a line: Electrically stimulated vas deferens from NOP(−/−) mice. Also on record: species or system mouse. As to conditions: CL95% in brackets. The protocol: The mouse vas deferens were prepared as previously described (Calto et al., Eur J Pharmacol. 311, (1996) R3-5). Tissues were suspended in 5 ml organ baths containing heated Krebs solution (composition in mM: NaCl 118.5, KCl 4.7, KH2PO4 1.2, NaHCO3 25, glucose 10 and CaCl2 2.5) oxygenated with 95% O2 and 5% CO2. The bath temperature was set at 33° C. Tissues were continuously stimulated through two platinum ring electrodes with supramaximal rectangular pulses of 1 ms duration and 0.05 Hz frequency. A resting tension of 0.3 g was applied to the vas deferens. The electrically evoked contractions (twitches) were measured isotonically with a strain gauge transducer (Basile 7006, UgoBasile s.r.l., Varese, Italy) and recorded with the PC based acquisition system Power Lab (ADInstrument, USA). Following an equilibration period of 60 min, the contractions induced by electrical field stimulation were stable.

B1: PWT2-N/OFQ: supramolecular aggregate of maleimido core PWT2 with nociceptin/orphanin FQ, made from PWT2 and [Cys18]N/OFQ-NH2 by thiol-Michael addition (conjugate)
peptide: SCQRDCLTCQEKLHPALDSFDLEVCILECEEKVFPSPLWTPCTKVMARSSWQLSPAAPEHVAAALYQPRASEMQHLRRMPRVRSLFQEQEEPEPGMEEAGEMEQKQLQKRFGGFTGARKSARKLANQKRFSEFMRQYLVLSMQSSQRRRTLHQNGNVC
Consider B1, for which the “Distance travelled (m)” value in assay [1] was found to be 203 ± 26 m; in assay [2] it was 104 ± 19 m. The “Immobility time” value is recorded as 2372 ± 525 s in assay [1] and 3305 ± 390 s in assay [2]. In addition, the “Rearings (n)” value was found to be 625 ± 181 n in assay [1] and 96 ± 19 n in assay [2]. Moreover, the “locomotor activity in overnight experiment” value in assay [3] (i.c.v. at 11 AM, N/OFQ 10 nmole, PWT2-N/OFQ 0.25 nmole, measured 3 PM to 9 AM) was “statistically significant reduced distance travelled and rearing behaviour associate with increased immobility time for the whole time course of the experiment”. Besides, the “acute effects on spontaneous locomotor activity” value in assay [3] (i.c.v., CD-1 mice, recorded for 120 min) is “slow onset of action and prolonged effects compared to the natural peptide”. Moreover, the “pEC50 (CL95%)” value with human NOP receptor is given as 8.83. Besides, the pEC50 in assay [4] (CL95% in brackets) was 7.92; with MOP receptor, “inactive”; in assay [5] (inhibition of twitch response, CD1 mouse vas deferens, CL95% in brackets), 7.78 (7.57-7.99); in assay [6], 5.85 (5.55-6.15). The values for the maximal effect (Emax) in assay [4] (maximal inhibition of electrically induced contractions) and in assay [5] (% inhibition of control twitch) were 91 ± 2% and 93 ± 2%, respectively. Further, the “reversal of inhibitory effect after washing the tissue” value in assay [5] is reported as “rather resistant to washing”. Besides, the “onset of inhibitory effect” value in assay [5] (after adding to the bath) is “slow inhibitory effect”. Also, in assay [5] (mouse vas deferens), the “time for inhibitory effect to reach the plateau” value is given as 10 min.
